Assay results taken from article PMC3185003.

Assays:
[1] = biological target: ABD_(TNF2) displayed on staphylococcal cells; test: flow cytometry on cells; S. carnosus cells displaying ABD-variants incubated 1 h at RT in PBSP pH 7.4 with twelve concentrations of biotinylated TNF-α (4.3-12900 nM; streptavidin-Alexa Fluor 488) or HSA-Alexa 488 (1.25-2500 nM; 10-20000 nM for ABD_(TNF1)); MFI fitted to a 1:1 model; apparent KD for TNF-α (monomer concentration)
[2] = biological target: non-randomized ABD displayed on staphylococcal cells (not stated (streptococcal)); test: as above
[3] = biological target: ABD_(TNF1) displayed on staphylococcal cells; test: as above
ABD_(HT015) = test: SPR; ProteOn XPR36; ABD-molecules immobilized by amine coupling on GLM or GLC chips (about 800-1500 RU); HSA (7-1200 nM) or TNF-α (1-100 nM) injected, 50 µl/min, 25°C, PBS with 0.1% Tween 20; at least triplicates, two chips, two days; apparent KD for TNF-α (monomer concentration)
ABD_(HT016) = test: as above
ABD_(T001) = test: as above
ABD_(T002) = test: as above
ABD_(T004) = test: as above
[4] = biological target: human serum albumin (human) (UniProt P02768); test: SPR; BIAcore 2000; HSA immobilized (2000 RU); ABD-variants injected in duplicates at about 1-3000 nM (up to 250 nM for ABD); 25°C, HBS-EP

biotinylated TNF-α, sequence (P01375 77-233): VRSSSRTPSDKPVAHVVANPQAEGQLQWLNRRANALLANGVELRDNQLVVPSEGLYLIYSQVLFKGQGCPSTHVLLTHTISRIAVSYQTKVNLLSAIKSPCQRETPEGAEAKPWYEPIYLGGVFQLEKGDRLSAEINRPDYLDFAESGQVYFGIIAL

Substance	Kd [1] [nM]	Kd (ABD_(HT016)) [nM]	Kd (ABD_(T001)) [nM]	Kd (ABD_(T002)) [nM]	other results
HSA conjugated to Alexa Fluor 488 (from UniProt P02768 25-609) (natural protein)	23	–	–	–	Kd [2]: 19 nM
biotinylated TNF-α (from UniProt P01375 77-233) (ligand)	594	–	–	–	Kd [3]: 267 nM
human serum albumin (from UniProt P02768 25-609) (natural protein)	–	68	192	649	Kd (ABD_(HT015)): 35 nM; Kd (ABD_(T004)): 209 nM
non-randomized ABD (alkali-stabilized albumin-binding domain from streptococcal protein G) (domain or fragment)	–	–	–	–	Kd [4]: 5.3 nM; koff [4]: 0.0009 s⁻¹; kon [4]: 170000 M⁻¹ s⁻¹
tumor necrosis factor-α (from UniProt P01375 77-233) (ligand)	–	4.5	5.2	2.9	–
